B1: Factor VIII SingleChain N2129C mutant (other)
chain: ATRRYYLGAVELSWDYMQSDLGELPVDARFPPRVPKSFPFNTSVVYKKTLFVEFTDHLFNIAKPRPPWMGLLGPTIQAEVYDTVVITLKNMASHPVSLHAVGVSYWKASEGAEYDDQTSQREKEDDKVFPGGSHTYVWQVLKENGPMASDPLCLTYSYLSHVDLVKDLNSGLIGALLVCREGSLAKEKTQTLHKFILLFAVFDEGKSWHSETKNSLMQDRDAASARAWPKMHTVNGYVNRSLPGLIGCHRKSVYWHVIGMGTTPEVHSIFLEGHTFLVRNHRQASLEISPITFLTAQTLLMDLGQFLLFCHISSHQHDGMEAYVKVDSCPEEPQLRMKNNEEAEDYDDDLTDSEMDVVRFDDDNSPSFIQIRSVAKKHPKTWVHYIAAEEEDWDYAPLVLAPDDRSYKSQYLNNGPQRIGRKYKKVRFMAYTDETFKTREAIQHESGILGPLLYGEVGDTLLIIFKNQASRPYNIYPHGITDVRPLYSRRLPKGVKHLKDFPILPGEIFKYKWTVTVEDGPTKSDPRCLTRYYSSFVNMERDLASGLIGPLLICYKESVDQRGNQIMSDKRNVILFSVFDENRSWYLTENIQRFLPNPAGVQLEDPEFQASNIMHSINGYVFDSLQLSVCLHEVAYWYILSIGAQTDFLSVFFSGYTFKHKMVYEDTLTLFPFSGETVFMSMENPGLWILGCHNSDFRNRGMTALLKVSSCDKNTGDYYEDSYEDISAYLLSKNNAIEPRSFSQNSRHRSTRQKQFNATTIPENTTLQSDQEEIDYDDTISVEMKKEDFDIYDEDENQSPRSFQKKTRHYFIAAVERLWDYGMSSSPHVLRNRAQSGSVPQFKKVVFQEFTDGSFTQPLYRGELNEHLGLLGPYIRAEVEDNIMVTFRNQASRPYSFYSSLISYEEDQRQGAEPRKNFVKPNETKTYFWKVQHHMAPTKDEFDCKAWAYFSDVDLEKDVHSGLIGPLLVCHTNTLNPAHGRQVTVQEFALFFTIFDETKSWYFTENMERNCRAPCNIQMEDPTFKENYRFHAINGYIMDTLPGLVMAQDQRIRWYLLSMGSNENIHSIHFSGHVFTVRKKEEYKMALYNLYPGVFETVEMLPSKAGIWRVECLIGEHLHAGMSTLFLVYSNKCQTPLGMASGHIRDFQITASGQYGQWAPKLARLHYSGSINAWSTKEPFSWIKVDLLAPMIIHGIKTQGARQKFSSLYISQFIIMYSLDGKKWQTYRGNSTGTLMVFFGCVDSSGIKHNIFNPPIIARYIRLHPTHYSIRSTLRMELMGCDLNSCSMPLGMESKAISDAQITASSYFTNMFATWSPSKARLHLQGRSNAWRPQVNNPKEWLQVDFQKTMKVTGVTTQGVKSLLTSMYVKEFLISSSQDGHQWTLFFQNGKVKVFQGNQDSFTPVVNSLDPPLLTRYLRIHPQSWVHQIALRMEVLGCEAQDLY
notes: Single-chain FVIII with partial B-domain deletion; also called FVIII-SC N2129C; Cys residue at FVIII aa position 2129

What was measured:
[1] = molecular target: VWF-FP (albumin-fused von Willebrand Factor) (human); assay: covalent-FVIII ELISA over FVIII activity assay
[2] = molecular target: VWF-FP (albumin-fused von Willebrand Factor) (human); assay: covalent-FVIII ELISA over FVIII antigen ELISA
[3] = molecular target: T1, VWF-FP H817C mutant (albumin-fused von Willebrand Factor) (human); assay: covalent-FVIII ELISA over FVIII antigen ELISA
T1 construct: Stably expressed in CHO cells with furin co-transfected; also called VWF-FP mutant H817C; Cys residue at VWF aa position 817; not shown: linker between VWF and albumin, made in analogy to WO 2009/156137

[4] = molecular target: T1, VWF-FP H817C mutant (albumin-fused von …); assay: ELISA of co-expression supernatant: anti-VWF capture, 350 mM CaCl2 wash, anti-FVIII detection
Experimental: Cell culture supernatant samples (10 ml) from transient transfections were concentrated with Amicon Ultracell-30K (Millipore UFC903024; 3000 g centrifugation). FVIII covalently attached to VWF-FP in culture supernatant (concentrates) was determined by a standard ELISA. Briefly, microplates were incubated with 100 μL per well of the capture antibody (rabbit anti human VWF-IgG, Dako A0082 [Dako, Hamburg, Germany], diluted 1:2000 in buffer A [Sigma C3041, Sigma-Aldrich, Munich, Germany]) overnight at ambient temperature. After washing plates three times with buffer B (Sigma T9039), each well was incubated with 200 μL buffer C (Sigma T6789) for 1.5 hours at ambient temperature (blocking). After another three wash steps with buffer B, serial dilutions of the test sample in buffer B as well as serial dilutions of a control preparation of covalently linked FVIII-VWF-FP, (2.0-0.03 arbitrary U/ml in buffer B (we call these “arbitrary units” as they may not correspond to the standard FVIII units as determined using Standard Human Plasma); volumes per well: 100 μL) were incubated for 1.5 hours at ambient temperature. After three wash steps with buffer B, 200 μL of 350 mM CaCl₂ were added to each well and incubated for 1 hour at ambient temperature. CaCl₂ was removed (without washing) and additional 200 μl were added to each well and incubated further for 1 hour. After three wash steps with buffer B 100 μL of a 1:2 dilution in buffer B of the detection antibody (Detecting Antibody for FVIII:C, peroxidase labelled, Cedarlane CL20035K-D) were added to each well and incubated for 1 hour at ambient temperature. After three wash steps with buffer B, 100 μL of substrate solution (OUVF, Siemens Healthcare Diagnostics) were added per well and incubated for 15 minutes at ambient temperature in the dark. Addition of 100 μL undiluted stop dilution (OSFA, Siemens Healthcare Diagnostics) prepared the samples for reading in a suitable microplate reader at 450 nm wavelength. Concentrations of the test samples were then calculated using the standard curve with the control preparation.

[5] = molecular target: T1, VWF-FP H817C mutant (albumin-fused von …); assay: covalent-FVIII ELISA over FVIII activity assay

T1 sequence (chain, as listed by the source H817C H817C): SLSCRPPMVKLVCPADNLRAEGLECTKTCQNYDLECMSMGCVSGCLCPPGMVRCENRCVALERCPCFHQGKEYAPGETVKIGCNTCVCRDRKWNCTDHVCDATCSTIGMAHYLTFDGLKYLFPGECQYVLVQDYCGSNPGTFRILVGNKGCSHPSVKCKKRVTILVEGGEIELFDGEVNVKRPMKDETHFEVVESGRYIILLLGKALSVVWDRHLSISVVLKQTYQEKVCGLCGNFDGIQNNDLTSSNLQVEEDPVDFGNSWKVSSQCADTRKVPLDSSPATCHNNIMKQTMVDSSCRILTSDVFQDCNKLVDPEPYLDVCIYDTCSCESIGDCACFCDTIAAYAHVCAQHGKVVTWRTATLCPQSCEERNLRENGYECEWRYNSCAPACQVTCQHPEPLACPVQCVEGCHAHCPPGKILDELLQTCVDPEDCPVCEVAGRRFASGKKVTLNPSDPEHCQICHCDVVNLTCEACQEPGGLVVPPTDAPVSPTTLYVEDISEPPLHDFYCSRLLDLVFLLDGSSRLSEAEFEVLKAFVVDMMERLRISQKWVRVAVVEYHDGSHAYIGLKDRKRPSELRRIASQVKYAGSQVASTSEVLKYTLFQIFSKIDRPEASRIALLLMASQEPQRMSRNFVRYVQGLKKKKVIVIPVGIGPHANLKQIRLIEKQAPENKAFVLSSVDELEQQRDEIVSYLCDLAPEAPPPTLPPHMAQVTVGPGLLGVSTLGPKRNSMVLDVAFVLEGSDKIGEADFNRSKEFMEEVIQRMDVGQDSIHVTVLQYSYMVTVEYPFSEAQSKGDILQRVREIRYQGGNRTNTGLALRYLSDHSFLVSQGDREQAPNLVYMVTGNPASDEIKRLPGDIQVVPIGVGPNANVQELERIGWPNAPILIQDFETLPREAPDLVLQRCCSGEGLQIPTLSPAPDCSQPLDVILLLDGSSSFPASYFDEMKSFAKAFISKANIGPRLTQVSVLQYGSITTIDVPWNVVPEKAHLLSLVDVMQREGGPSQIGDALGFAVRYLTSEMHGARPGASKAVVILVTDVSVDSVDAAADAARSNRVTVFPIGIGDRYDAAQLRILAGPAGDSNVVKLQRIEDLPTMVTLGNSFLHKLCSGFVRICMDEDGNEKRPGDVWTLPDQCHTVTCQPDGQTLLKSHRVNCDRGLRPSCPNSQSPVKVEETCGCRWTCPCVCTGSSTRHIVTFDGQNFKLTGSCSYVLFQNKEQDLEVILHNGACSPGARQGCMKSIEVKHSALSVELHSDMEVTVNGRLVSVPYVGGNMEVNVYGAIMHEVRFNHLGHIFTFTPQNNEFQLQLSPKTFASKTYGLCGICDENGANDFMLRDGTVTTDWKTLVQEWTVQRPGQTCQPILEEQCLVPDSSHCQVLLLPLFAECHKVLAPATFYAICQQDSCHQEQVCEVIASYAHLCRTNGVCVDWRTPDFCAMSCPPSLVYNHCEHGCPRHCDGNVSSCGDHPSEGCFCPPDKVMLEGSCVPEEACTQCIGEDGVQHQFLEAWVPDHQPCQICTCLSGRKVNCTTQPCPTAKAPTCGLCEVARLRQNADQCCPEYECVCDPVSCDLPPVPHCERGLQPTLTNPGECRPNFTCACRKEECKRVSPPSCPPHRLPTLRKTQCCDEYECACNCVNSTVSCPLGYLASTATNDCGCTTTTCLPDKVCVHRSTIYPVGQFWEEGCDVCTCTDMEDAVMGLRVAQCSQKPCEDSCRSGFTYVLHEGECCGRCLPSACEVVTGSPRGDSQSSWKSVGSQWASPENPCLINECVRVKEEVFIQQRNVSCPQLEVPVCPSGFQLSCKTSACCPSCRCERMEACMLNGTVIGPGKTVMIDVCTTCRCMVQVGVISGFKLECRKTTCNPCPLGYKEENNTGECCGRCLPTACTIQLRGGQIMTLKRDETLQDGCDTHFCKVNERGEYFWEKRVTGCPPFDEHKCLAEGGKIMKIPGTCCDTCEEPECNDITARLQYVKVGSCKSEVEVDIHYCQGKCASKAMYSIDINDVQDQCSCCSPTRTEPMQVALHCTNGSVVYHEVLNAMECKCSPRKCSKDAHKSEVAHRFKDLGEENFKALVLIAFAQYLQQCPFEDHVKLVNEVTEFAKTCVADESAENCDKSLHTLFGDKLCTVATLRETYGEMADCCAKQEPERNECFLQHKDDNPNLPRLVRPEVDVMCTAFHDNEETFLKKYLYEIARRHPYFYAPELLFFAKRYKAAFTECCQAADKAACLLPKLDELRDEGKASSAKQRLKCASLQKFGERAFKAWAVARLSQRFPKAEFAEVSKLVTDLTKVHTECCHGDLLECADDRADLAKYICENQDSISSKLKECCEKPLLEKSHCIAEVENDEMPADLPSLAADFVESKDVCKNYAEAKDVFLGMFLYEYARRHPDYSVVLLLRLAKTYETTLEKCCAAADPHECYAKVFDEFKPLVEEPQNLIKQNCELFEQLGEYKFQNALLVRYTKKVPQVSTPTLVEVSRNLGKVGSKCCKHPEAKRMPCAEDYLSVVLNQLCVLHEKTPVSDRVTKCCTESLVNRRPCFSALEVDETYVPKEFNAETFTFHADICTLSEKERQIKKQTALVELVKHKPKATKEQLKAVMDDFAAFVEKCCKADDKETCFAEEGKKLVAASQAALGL
Chain of VWF-FP (albumin-fused von Willebrand Factor) (human) (chain, as listed by the source): as the sequence (chain, as listed by the source H817C H817C) above, with C54H counted along it

| Molecule | ratio of covalent FVIII to total FVIII activity [1] | ratio of covalent FVIII to total FVIII antigen [2] | ratio covalent FVIII/Total FVIII antigen [3] | covalent FVIII [4] | ratio covalent FVIII/Total FVIII activity [5] |
| --- | --- | --- | --- | --- | --- |
| FVIII-SingleChain with VWF-derived C3-C4-C5-C6-CK sequence added to its C-terminus and a thrombin cleavage site between them | 5.78 | 7.47 | – | – | – |
| B1 | – | – | 0.33 | 292 amU/ml | 1.02 |

From US20180092966A1 (CSL, published 2018)
